In PMC9046087, “Structural basis of tethered agonism of the adhesion GPCRs ADGRD1 and ADGRF1” (Nature, 2022):

Tested on: ADGRF1
Assay: Cell-surface expression by flow cytometry, ADGRF1
Type: cell-based, human
Settings: ADGRF1 constructs (pF1 Gi part of table), anti-Flag antibody, three independent measurements in duplicate
Experimental: The wild-type ADGRD1 and ADGRF1 and mutants used in functional studies were constructed into a pTT5 vector with a Flag tag at the N terminus for receptor expression measurement. The basal activity of ADGRD1 and ADGRF1 in mediating Gs signalling was measured by a cAMP accumulation assay using a LANCE Ultra cAMP detection kit (PerkinElmer) following the manufacturer’s instruction. In brief, 2 ml HEK293F cells (Invitrogen; cells were routinely tested for mycoplasma contamination) at a density of 1.2 × 10^6 cells per ml were transiently transfected with 2,000 ng plasmid of the wild-type or mutant receptor and cultured at 37 °C for 48 h with 5% CO2 atmosphere in a shaker shaking at 220 rpm. After collection, the cell-surface expression of the receptors was measured by incubating 10 μl cells with 15 μl monoclonal anti-Flag M2-FITC antibody (Sigma; 1:120 diluted in TBS supplemented with 4% BSA and 20% viability staining solution 7-AAD (Invitrogen)) at 4 °C for 20 min. After incubation, 175 μl TBS buffer was added and the fluorescent signal was measured using a flow cytometry reader (Guava easyCyte HT, Millipore).

Molecule	Cell-surface expression (% of WT)
V585^1.36bA (protein, UniProt Q5T601 20-910, looked up, variant V585A) Adhesion G-protein coupled …: GFLGKNDGIKTKKELIVNKKKHLGPVEEYQLLLQVTYRDSKEKRDLRNFLKLLKPPLLWSHGLIRIIRAKATTDCNSLNGVLQCTCEDSYTWFPPSCLDPQNCYLHTAGALPSCECHLNNLSQSVNFCERTKIWGTFKINERFTNDLLNSSSAIYSKYANGIEIQLKKAYERIQGFESVQVTQFRNGSIVAGYEVVGSSSASELLSAIEHVAEKAKTALHKLFPLEDGSFRVFGKAQCNDIVFGFGSKDDEYTLPCSSGYRGNITAKCESSGWQVIRETCVLSLLEELNKNFSMIVGNATEAAVSSFVQNLSVIIRQNPSTTVGNLASVVSILSNISSLSLASHFRVSNSTMEDVISIADNILNSASVTNWTVLLREEKYASSRLLETLENISTLVPPTALPLNFSRKFIDWKGIPVNKSQLKRGYSYQIKMCPQNTSIPIRGRVLIGSDQFQRSLPETIISMASLTLGNILPVSKNGNAQVNGPVISTVIQNYSINEVFLFFSKIESNLSQPHCVFWDFSHLQWNDAGCHLVNETQDIVTCQCTHLTSFSILMSPFVPSTIFPVAKWITYVGLGISIGSLILCLIIEALFWKQIKKSQTSHTRRICMVNIALSLLIADVWFIVGATVDTTVNPSGVCTAAVFFTHFFYLSLFFWMLMLGILLAYRIILVFHHMAQHLMMAVGFCLGYGCPLIISVITIAVTQPSNTYKRKDVCWLNWSNGSKPLLAFVVPALAIVAVNFVVVLLVLTKLWRPTVGERLSRDDKATIIRVGKSLLILTPLLGLTWGFGIGTIVDSQNLAWHVIFALLNAFQGFFILCFGILLDSKLRQLLFNKLSALSSWKQTEKQNSSDLSAKPKFSKPFNPLQNKGHYAFSHTGDSSDNIMLTQFVSNE	91 ± 21 % of WT
Y668^3.40bA (protein, UniProt Q5T601 20-910, looked up, variant Y668A) Adhesion G-protein coupled …: GFLGKNDGIKTKKELIVNKKKHLGPVEEYQLLLQVTYRDSKEKRDLRNFLKLLKPPLLWSHGLIRIIRAKATTDCNSLNGVLQCTCEDSYTWFPPSCLDPQNCYLHTAGALPSCECHLNNLSQSVNFCERTKIWGTFKINERFTNDLLNSSSAIYSKYANGIEIQLKKAYERIQGFESVQVTQFRNGSIVAGYEVVGSSSASELLSAIEHVAEKAKTALHKLFPLEDGSFRVFGKAQCNDIVFGFGSKDDEYTLPCSSGYRGNITAKCESSGWQVIRETCVLSLLEELNKNFSMIVGNATEAAVSSFVQNLSVIIRQNPSTTVGNLASVVSILSNISSLSLASHFRVSNSTMEDVISIADNILNSASVTNWTVLLREEKYASSRLLETLENISTLVPPTALPLNFSRKFIDWKGIPVNKSQLKRGYSYQIKMCPQNTSIPIRGRVLIGSDQFQRSLPETIISMASLTLGNILPVSKNGNAQVNGPVISTVIQNYSINEVFLFFSKIESNLSQPHCVFWDFSHLQWNDAGCHLVNETQDIVTCQCTHLTSFSILMSPFVPSTIFPVVKWITYVGLGISIGSLILCLIIEALFWKQIKKSQTSHTRRICMVNIALSLLIADVWFIVGATVDTTVNPSGVCTAAVFFTHFFALSLFFWMLMLGILLAYRIILVFHHMAQHLMMAVGFCLGYGCPLIISVITIAVTQPSNTYKRKDVCWLNWSNGSKPLLAFVVPALAIVAVNFVVVLLVLTKLWRPTVGERLSRDDKATIIRVGKSLLILTPLLGLTWGFGIGTIVDSQNLAWHVIFALLNAFQGFFILCFGILLDSKLRQLLFNKLSALSSWKQTEKQNSSDLSAKPKFSKPFNPLQNKGHYAFSHTGDSSDNIMLTQFVSNE	67 ± 1 % of WT
T589^1.40bA (protein, UniProt Q5T601 20-910, looked up, variant T589A) Adhesion G-protein coupled …: GFLGKNDGIKTKKELIVNKKKHLGPVEEYQLLLQVTYRDSKEKRDLRNFLKLLKPPLLWSHGLIRIIRAKATTDCNSLNGVLQCTCEDSYTWFPPSCLDPQNCYLHTAGALPSCECHLNNLSQSVNFCERTKIWGTFKINERFTNDLLNSSSAIYSKYANGIEIQLKKAYERIQGFESVQVTQFRNGSIVAGYEVVGSSSASELLSAIEHVAEKAKTALHKLFPLEDGSFRVFGKAQCNDIVFGFGSKDDEYTLPCSSGYRGNITAKCESSGWQVIRETCVLSLLEELNKNFSMIVGNATEAAVSSFVQNLSVIIRQNPSTTVGNLASVVSILSNISSLSLASHFRVSNSTMEDVISIADNILNSASVTNWTVLLREEKYASSRLLETLENISTLVPPTALPLNFSRKFIDWKGIPVNKSQLKRGYSYQIKMCPQNTSIPIRGRVLIGSDQFQRSLPETIISMASLTLGNILPVSKNGNAQVNGPVISTVIQNYSINEVFLFFSKIESNLSQPHCVFWDFSHLQWNDAGCHLVNETQDIVTCQCTHLTSFSILMSPFVPSTIFPVVKWIAYVGLGISIGSLILCLIIEALFWKQIKKSQTSHTRRICMVNIALSLLIADVWFIVGATVDTTVNPSGVCTAAVFFTHFFYLSLFFWMLMLGILLAYRIILVFHHMAQHLMMAVGFCLGYGCPLIISVITIAVTQPSNTYKRKDVCWLNWSNGSKPLLAFVVPALAIVAVNFVVVLLVLTKLWRPTVGERLSRDDKATIIRVGKSLLILTPLLGLTWGFGIGTIVDSQNLAWHVIFALLNAFQGFFILCFGILLDSKLRQLLFNKLSALSSWKQTEKQNSSDLSAKPKFSKPFNPLQNKGHYAFSHTGDSSDNIMLTQFVSNE	83 ± 3 % of WT
F641^2.64bA (protein, UniProt Q5T601 20-910, looked up, variant F641A) Adhesion G-protein coupled …: GFLGKNDGIKTKKELIVNKKKHLGPVEEYQLLLQVTYRDSKEKRDLRNFLKLLKPPLLWSHGLIRIIRAKATTDCNSLNGVLQCTCEDSYTWFPPSCLDPQNCYLHTAGALPSCECHLNNLSQSVNFCERTKIWGTFKINERFTNDLLNSSSAIYSKYANGIEIQLKKAYERIQGFESVQVTQFRNGSIVAGYEVVGSSSASELLSAIEHVAEKAKTALHKLFPLEDGSFRVFGKAQCNDIVFGFGSKDDEYTLPCSSGYRGNITAKCESSGWQVIRETCVLSLLEELNKNFSMIVGNATEAAVSSFVQNLSVIIRQNPSTTVGNLASVVSILSNISSLSLASHFRVSNSTMEDVISIADNILNSASVTNWTVLLREEKYASSRLLETLENISTLVPPTALPLNFSRKFIDWKGIPVNKSQLKRGYSYQIKMCPQNTSIPIRGRVLIGSDQFQRSLPETIISMASLTLGNILPVSKNGNAQVNGPVISTVIQNYSINEVFLFFSKIESNLSQPHCVFWDFSHLQWNDAGCHLVNETQDIVTCQCTHLTSFSILMSPFVPSTIFPVVKWITYVGLGISIGSLILCLIIEALFWKQIKKSQTSHTRRICMVNIALSLLIADVWAIVGATVDTTVNPSGVCTAAVFFTHFFYLSLFFWMLMLGILLAYRIILVFHHMAQHLMMAVGFCLGYGCPLIISVITIAVTQPSNTYKRKDVCWLNWSNGSKPLLAFVVPALAIVAVNFVVVLLVLTKLWRPTVGERLSRDDKATIIRVGKSLLILTPLLGLTWGFGIGTIVDSQNLAWHVIFALLNAFQGFFILCFGILLDSKLRQLLFNKLSALSSWKQTEKQNSSDLSAKPKFSKPFNPLQNKGHYAFSHTGDSSDNIMLTQFVSNE	82 ± 19 % of WT
W734^ECL2A (protein, UniProt Q5T601 20-910, looked up, variant W734A) Adhesion G-protein coupled …: GFLGKNDGIKTKKELIVNKKKHLGPVEEYQLLLQVTYRDSKEKRDLRNFLKLLKPPLLWSHGLIRIIRAKATTDCNSLNGVLQCTCEDSYTWFPPSCLDPQNCYLHTAGALPSCECHLNNLSQSVNFCERTKIWGTFKINERFTNDLLNSSSAIYSKYANGIEIQLKKAYERIQGFESVQVTQFRNGSIVAGYEVVGSSSASELLSAIEHVAEKAKTALHKLFPLEDGSFRVFGKAQCNDIVFGFGSKDDEYTLPCSSGYRGNITAKCESSGWQVIRETCVLSLLEELNKNFSMIVGNATEAAVSSFVQNLSVIIRQNPSTTVGNLASVVSILSNISSLSLASHFRVSNSTMEDVISIADNILNSASVTNWTVLLREEKYASSRLLETLENISTLVPPTALPLNFSRKFIDWKGIPVNKSQLKRGYSYQIKMCPQNTSIPIRGRVLIGSDQFQRSLPETIISMASLTLGNILPVSKNGNAQVNGPVISTVIQNYSINEVFLFFSKIESNLSQPHCVFWDFSHLQWNDAGCHLVNETQDIVTCQCTHLTSFSILMSPFVPSTIFPVVKWITYVGLGISIGSLILCLIIEALFWKQIKKSQTSHTRRICMVNIALSLLIADVWFIVGATVDTTVNPSGVCTAAVFFTHFFYLSLFFWMLMLGILLAYRIILVFHHMAQHLMMAVGFCLGYGCPLIISVITIAVTQPSNTYKRKDVCALNWSNGSKPLLAFVVPALAIVAVNFVVVLLVLTKLWRPTVGERLSRDDKATIIRVGKSLLILTPLLGLTWGFGIGTIVDSQNLAWHVIFALLNAFQGFFILCFGILLDSKLRQLLFNKLSALSSWKQTEKQNSSDLSAKPKFSKPFNPLQNKGHYAFSHTGDSSDNIMLTQFVSNE	87 ± 1 % of WT
L593^1.47bA (protein, UniProt Q5T601 20-910, looked up, variant L593A) Adhesion G-protein coupled …: GFLGKNDGIKTKKELIVNKKKHLGPVEEYQLLLQVTYRDSKEKRDLRNFLKLLKPPLLWSHGLIRIIRAKATTDCNSLNGVLQCTCEDSYTWFPPSCLDPQNCYLHTAGALPSCECHLNNLSQSVNFCERTKIWGTFKINERFTNDLLNSSSAIYSKYANGIEIQLKKAYERIQGFESVQVTQFRNGSIVAGYEVVGSSSASELLSAIEHVAEKAKTALHKLFPLEDGSFRVFGKAQCNDIVFGFGSKDDEYTLPCSSGYRGNITAKCESSGWQVIRETCVLSLLEELNKNFSMIVGNATEAAVSSFVQNLSVIIRQNPSTTVGNLASVVSILSNISSLSLASHFRVSNSTMEDVISIADNILNSASVTNWTVLLREEKYASSRLLETLENISTLVPPTALPLNFSRKFIDWKGIPVNKSQLKRGYSYQIKMCPQNTSIPIRGRVLIGSDQFQRSLPETIISMASLTLGNILPVSKNGNAQVNGPVISTVIQNYSINEVFLFFSKIESNLSQPHCVFWDFSHLQWNDAGCHLVNETQDIVTCQCTHLTSFSILMSPFVPSTIFPVVKWITYVGAGISIGSLILCLIIEALFWKQIKKSQTSHTRRICMVNIALSLLIADVWFIVGATVDTTVNPSGVCTAAVFFTHFFYLSLFFWMLMLGILLAYRIILVFHHMAQHLMMAVGFCLGYGCPLIISVITIAVTQPSNTYKRKDVCWLNWSNGSKPLLAFVVPALAIVAVNFVVVLLVLTKLWRPTVGERLSRDDKATIIRVGKSLLILTPLLGLTWGFGIGTIVDSQNLAWHVIFALLNAFQGFFILCFGILLDSKLRQLLFNKLSALSSWKQTEKQNSSDLSAKPKFSKPFNPLQNKGHYAFSHTGDSSDNIMLTQFVSNE	90 ± 6 % of WT
